Test results: patent US20250289871A1 (AstraZeneca / MedImmune, published 2025)

Legend:
[1] = target: SARS-CoV-2 spike RBD point mutant K444A (SARS-CoV-2, UniProt P0DTC2 334-526)
[2] = target: SARS-CoV-2 spike RBD point mutant F486A (SARS-CoV-2, UniProt P0DTC2 334-526)
[3] = target: Omicron (BA.1) spike protein (pseudovirus) (SARS-CoV-2); test: cell-based or functional assay
[4] = target: BA1.1 spike protein (pseudovirus) (SARS-CoV-2); test: cell-based or functional assay
[5] = target: BA.2 spike protein (pseudovirus) (SARS-CoV-2); test: cell-based or functional assay
[6] = target: Delta spike protein (pseudovirus) (SARS-CoV-2); test: cell-based or functional assay
[7] = target: D614G spike protein (pseudovirus) (SARS-CoV-2); test: cell-based or functional assay
[8] = target: T1, SARS-CoV-2 BA.2.12.1 spike protein (authentic virus) (SARS-CoV-2, UniProt P0DTC2 14-1273); test: cell-based or functional assay
[9] = target: BA.2.12.1 spike protein (pseudovirus) (SARS-CoV-2); test: cell-based or functional assay
[10] = target: SARS-CoV-2 D614G spike protein (authentic virus) (SARS-CoV-2, UniProt P0DTC2 14-1273); test: cell-based or functional assay
[11] = target: SARS-CoV-2 Alpha spike protein (authentic virus) (SARS-CoV-2, UniProt P0DTC2 14-1273); test: cell-based or functional assay
[12] = target: SARS-CoV-2 BA.1 spike protein (authentic virus) (SARS-CoV-2, UniProt P0DTC2 14-1273); test: cell-based or functional assay
[13] = target: SARS-CoV-2 BA.1.1 spike protein (authentic virus) (SARS-CoV-2, UniProt P0DTC2 14-1273); test: cell-based or functional assay
[14] = target: SARS-CoV-2 BA.2 spike protein (authentic virus) (SARS-CoV-2, UniProt P0DTC2 14-1273); test: cell-based or functional assay
[15] = target: T1, SARS-CoV-2 BA.2.12.1 spike protein …; test: cell-based or functional assay; remark: listed apart in the source
[16] = target: SARS-CoV-2 BA.5 spike protein (authentic virus) (SARS-CoV-2, UniProt P0DTC2 14-1273); test: cell-based or functional assay

B1: RQ40 (TM-YTE) (antibody, V domains shown)
VH: EVQLVESGAEVKKPGSSVKVSCKASGGTFSSYAINWVRQAPGQGLEWMGGIIPIFRTPHYAQKFQGRVTITADESTGTAYMELSSLRSEDTAVYYCASPSCGGDCPQYLKSSKLDWYFDLWGRGTLVTVSS
VL: VIWMTQSPGTLSLSPGERATLSCRASQSVSSTYLAWYQQKPGQAPRLLIYGASSRATGIPDRFSGSGSGTDFTLTISRLEPEDFAVYYCQHYGSSPLTFGQGTRLEIK
Kd [1]: < 0.001 nM
Kd [2]: 47.1 nM
EC50, pseudovirus neutralization [3]: 0.0064 µg/mL
EC50, pseudovirus neutralization [4]: 0.0042 µg/mL
EC50, pseudovirus neutralization [5]: 0.007 µg/mL
EC50, pseudovirus neutralization [6]: 0.0112 µg/mL
EC50, pseudovirus neutralization [7]: 0.0099 µg/mL

B2: RQ33 (TM-YTE) (antibody, V domains shown)
VH: QVQLQESGPGLVKPSETLSLTCTVFGGSITSSNHYWVWIRQPPGKGLEWIGSMYYSGSTAYNPSLTNRVTISVDTSKNQFSLKLSSVTAADTAVYYCARQIGPKRPSQVADWFDPWGQGTLVTVSS
VL: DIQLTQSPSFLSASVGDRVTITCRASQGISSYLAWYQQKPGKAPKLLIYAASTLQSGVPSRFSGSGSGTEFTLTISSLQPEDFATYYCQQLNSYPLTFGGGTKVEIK
Kd [1]: 3.13 nM
Kd [2]: 3.28 nM
EC50, pseudovirus neutralization [3]: 0.0045 µg/mL
EC50, pseudovirus neutralization [4]: 0.0031 µg/mL
EC50, pseudovirus neutralization [5]: 0.0797 µg/mL
EC50, pseudovirus neutralization [6]: 0.205 µg/mL
EC50, pseudovirus neutralization [7]: 0.191 µg/mL
IC50 (read off the curve), FRNT, authentic BA.2.12.1 virus [8]: ~0.5 µg/mL
IC50 (read off the curve), pseudovirus with BA.2.12.1 spike [9]: ~0.05 µg/mL

B3: RQ41 (TM-YTE) (antibody, V domains shown)
VH: EVQLVESGGGLIQPGGSLRLSCAASEIIVSRNYMSWVRQAPGKGLEWVSVIYSGGSTFYADSVKGRFTISRDNSKNTLYLQMNSLRAEDTAVYYCARDLDVVGGTDYWGQGTLVTVSS
VL: not shown
EC50, pseudovirus neutralization [3]: 0.0062 µg/mL
EC50, pseudovirus neutralization [4]: 0.0039 µg/mL
EC50, pseudovirus neutralization [5]: 0.0126 µg/mL
EC50, pseudovirus neutralization [6]: 0.0182 µg/mL
EC50, pseudovirus neutralization [7]: 0.011 µg/mL

B4: RQ43-GL-H-LO1 (TM-YTE) (antibody, V domains shown)
VH: EVQLVESGGGLVQPGRSLRLSCAASGFPFDDYAIHWVRLAPGKGLEWVSSISWDSGSIGYADSVKGRFTISRDNAKNSLYLQMNSLRAEDTALYYCAKGAFPGYSSGWYYGLEVWGQGTTVTVSS
VL: QSVVTQPPSASGSLGQSVTISCTGTSSDVGGYNYVSWYQQHPGKAPKLMIFEVSKRPSGVPDRFSGSKSGNTASLTVSGLQAEDEADYYCSSYAGNKGVFGGGTKLTVL
Authentic Virus Neutralization IC50 [10]: 0.099 µg/mL
Authentic Virus Neutralization IC50 [11]: 0.06 µg/mL
Authentic Virus Neutralization IC50 [12]: 0.011 µg/mL
Authentic Virus Neutralization IC50 [13]: 0.007 µg/mL
Authentic Virus Neutralization IC50 [14]: 0.031 µg/mL
Authentic Virus Neutralization IC50 [15]: 0.028 µg/mL
Authentic Virus Neutralization IC50 [16]: 0.017 µg/mL
IC50 (read off the curve), pseudovirus with BA.2.12.1 spike [9]: ~0.008 µg/mL

B5: RQ43 (TM-YTE) (antibody, V domains shown)
VH: EVQLLETGGGLVQPGRSLRLSCAASGFPFDDYAIHWVRLAPGKGLEWVSSISWDSGSIGYADSVKGRFTISRDNAKNSLYLQMNSLRAEDTALYYCAKGAFPGYSSGWYYGLDVWGQGATVTVSS
VL: QSVVTQPPSASGSLGQSVTISCTGTSSDVGGYNYVSWYQQHPGKAPKLMIFEVSKRPSGVPDRFSGSKSGNTASLTVSGLQAEDEADYYCSSYAGNKGVFGGGTKLTVL
Kd [1]: < 0.001 nM
Kd [2]: < 0.001 nM
EC50, pseudovirus neutralization [3]: 0.0078 µg/mL
EC50, pseudovirus neutralization [4]: 0.006 µg/mL
EC50, pseudovirus neutralization [5]: 0.0105 µg/mL
EC50, pseudovirus neutralization [6]: 0.0259 µg/mL
EC50, pseudovirus neutralization [7]: 0.0158 µg/mL
